Source: the supplement of paper PMC9112550, “Optimization of the antimicrobial peptide Bac7 by deep mutational scanning” (BMC Biology, 2022)

Tested on: Escherichia coli TOP10
Experiment: shrunken log2 fold change of peptide-encoding DNA abundance (4.5 h post-induction vs induction); higher = less antimicrobial activity (less host growth inhibition)
Settings: time post-induction: 4.5 h; library: site-saturation at positions 5, 18, 19, 20
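Note: peptides expressed intracellularly from a pBAD plasmid library in pooled LB shake-flask culture, induced with 0.3% L-arabinose, DNA abundance read by NGS, three biological replicates, DESeq2 with apeglm shrinkage.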

Sequence	shrunken log2 fold change
RRIRFRPPRLPRPRPRPVPVPRP	0.143
RRIRVRPPRLPRPRPRPHCHPRP	-0.105
RRIRQRPPRLPRPRPRPNWKPRP	0.135
RRIRTRPPRLPRPRPRPNAEPRP	0.25
RRIRGRPPRLPRPRPRPEFAPRP	1.22
RRIRLRPPRLPRPRPRPQRFPRP	-0.142
RRIRWRPPRLPRPRPRPVEFPRP	-0.177
RRIRIRPPRLPRPRPRPPREPRP	0.535
RRIRIRPPRLPRPRPRPPAPPRP	0.298
RRIRQRPPRLPRPRPRPLQMPRP	0.122
RRIRTRPPRLPRPRPRPCNEPRP	-0.173
RRIRSRPPRLPRPRPRPRNKPRP	-0.0701
RRIRARPPRLPRPRPRPFYMPRP	-0.45
RRIRWRPPRLPRPRPRPTSNPRP	-0.0919
RRIRTRPPRLPRPRPRPHLQPRP	-0.321
RRIRTRPPRLPRPRPRPVINPRP	-0.189
RRIRRRPPRLPRPRPRPFGMPRP	-0.0784
RRIRQRPPRLPRPRPRPTMEPRP	-0.0535
RRIRQRPPRLPRPRPRPKQLPRP	-0.156
RRIRRRPPRLPRPRPRPNCIPRP	0.104
RRIRPRPPRLPRPRPRPAALPRP	0.248
RRIRHRPPRLPRPRPRPFPSPRP	0.0517
RRIRCRPPRLPRPRPRPHVRPRP	-0.4
RRIRFRPPRLPRPRPRPGVWPRP	0.507
RRIRPRPPRLPRPRPRPKHIPRP	-0.301

Sequence	shrunken log2 fold change
RRIRMRPPRLPRPRPRPCIKPRP	0.0207
RRIRQRPPRLPRPRPRPHDKPRP	-0.773
RRIRPRPPRLPRPRPRPIINPRP	-0.909
RRIRTRPPRLPRPRPRPMPDPRP	-0.0705
RRIRLRPPRLPRPRPRPICQPRP	0.0108
RRIRERPPRLPRPRPRPKPVPRP	0.173
RRIRLRPPRLPRPRPRPSIGPRP	-0.378
RRIRTRPPRLPRPRPRPLDNPRP	-0.396
RRIRNRPPRLPRPRPRPWYSPRP	-2.32
RRIRFRPPRLPRPRPRPGRGPRP	0.607
RRIRKRPPRLPRPRPRPYDGPRP	-0.0976
RRIRIRPPRLPRPRPRPSQYPRP	-0.555
RRIRNRPPRLPRPRPRPDGDPRP	-0.194
RRIRQRPPRLPRPRPRPMGKPRP	-0.167
RRIRGRPPRLPRPRPRPVPSPRP	0.201
RRIRTRPPRLPRPRPRPFCQPRP	0.101
RRIRQRPPRLPRPRPRPRNKPRP	-0.68
RRIRARPPRLPRPRPRPGDEPRP	0.393
RRIRFRPPRLPRPRPRPMIAPRP	-0.195
RRIRIRPPRLPRPRPRPVLIPRP	-0.469
RRIRRRPPRLPRPRPRPPLMPRP	0.708
RRIRCRPPRLPRPRPRPMAVPRP	0.0112
RRIRHRPPRLPRPRPRPDHAPRP	0.0557
RRIRFRPPRLPRPRPRPFRCPRP	-0.227
RRIRDRPPRLPRPRPRPHEYPRP	-0.01

Sequence	shrunken log2 fold change
RRIRQRPPRLPRPRPRPRHLPRP	-0.33
RRIRDRPPRLPRPRPRPGFLPRP	0.368
RRIRRRPPRLPRPRPRPEFYPRP	0.413
RRIRHRPPRLPRPRPRPGPRPRP	0.417
RRIRCRPPRLPRPRPRPPAEPRP	1.18
RRIRSRPPRLPRPRPRPAHDPRP	0.162
RRIRNRPPRLPRPRPRPVDTPRP	0.033
RRIRLRPPRLPRPRPRPEINPRP	-0.0201
RRIRQRPPRLPRPRPRPYNYPRP	-1.44
RRIRKRPPRLPRPRPRPMWYPRP	0.0551
RRIRYRPPRLPRPRPRPHNGPRP	-0.0705
RRIRIRPPRLPRPRPRPDCDPRP	-0.242
RRIRRRPPRLPRPRPRPNRLPRP	0.523
RRIRQRPPRLPRPRPRPQVQPRP	-0.00173
RRIRYRPPRLPRPRPRPGCDPRP	-0.282
RRIRWRPPRLPRPRPRPRVWPRP	0.646
RRIRSRPPRLPRPRPRPCNDPRP	-0.261
RRIRVRPPRLPRPRPRPNLEPRP	0.0543
RRIRIRPPRLPRPRPRPYMTPRP	-1.6
RRIRGRPPRLPRPRPRPRRDPRP	0.424
RRIRLRPPRLPRPRPRPNDTPRP	-0.302
RRIRVRPPRLPRPRPRPSKSPRP	-0.172
RRIRFRPPRLPRPRPRPTWTPRP	-0.11
RRIRERPPRLPRPRPRPHQGPRP	0.0963
RRIRIRPPRLPRPRPRPFEPPRP	-0.204

Sequence	shrunken log2 fold change
RRIRIRPPRLPRPRPRPWDPPRP	-0.0252
RRIRMRPPRLPRPRPRPTTTPRP	0.276
RRIRFRPPRLPRPRPRPYPMPRP	-0.119
RRIRHRPPRLPRPRPRPVHSPRP	0.0246
RRIRWRPPRLPRPRPRPFQTPRP	-0.00783
RRIRNRPPRLPRPRPRPYDQPRP	-0.37
RRIRGRPPRLPRPRPRPFIDPRP	0.585
RRIRLRPPRLPRPRPRPELVPRP	0.113
RRIRDRPPRLPRPRPRPELIPRP	0.0219
RRIRDRPPRLPRPRPRPFVYPRP	-0.344
RRIRGRPPRLPRPRPRPEGYPRP	0.118
RRIRKRPPRLPRPRPRPWAGPRP	0.115
RRIRARPPRLPRPRPRPMRGPRP	1.56
RRIRSRPPRLPRPRPRPICGPRP	-0.056
RRIRARPPRLPRPRPRPEFGPRP	0.874
RRIRQRPPRLPRPRPRPPMEPRP	-0.22
RRIRERPPRLPRPRPRPADLPRP	-0.175
RRIRPRPPRLPRPRPRPIGHPRP	-0.0228
RRIRWRPPRLPRPRPRPLIFPRP	-0.215
RRIRARPPRLPRPRPRPICFPRP	1.21
RRIRKRPPRLPRPRPRPYYHPRP	0.158
RRIRVRPPRLPRPRPRPPKYPRP	-0.416
RRIRIRPPRLPRPRPRPACHPRP	-0.12
RRIRSRPPRLPRPRPRPQMPPRP	0.189
RRIRFRPPRLPRPRPRPELLPRP	0.146

Sequence	shrunken log2 fold change
RRIRGRPPRLPRPRPRPHPKPRP	0.865
RRIRWRPPRLPRPRPRPETMPRP	0.569
RRIRQRPPRLPRPRPRPARFPRP	0.0469
RRIRTRPPRLPRPRPRPSPKPRP	2.46
RRIRMRPPRLPRPRPRPSTPPRP	0.0303
RRIRGRPPRLPRPRPRPHIRPRP	0.0682
RRIRTRPPRLPRPRPRPMHSPRP	0.02
RRIRARPPRLPRPRPRPGNCPRP	0.061
RRIRFRPPRLPRPRPRPDMKPRP	-0.25
RRIRVRPPRLPRPRPRPWSPPRP	-0.00502
RRIRMRPPRLPRPRPRPACHPRP	0.151
RRIRARPPRLPRPRPRPEACPRP	1.24
RRIRPRPPRLPRPRPRPWQRPRP	-0.0107
RRIRPRPPRLPRPRPRPSISPRP	-0.37
RRIRDRPPRLPRPRPRPWAAPRP	0.00948
RRIRSRPPRLPRPRPRPYMYPRP	-0.466
RRIRGRPPRLPRPRPRPCVFPRP	0.664
RRIRIRPPRLPRPRPRPPNPPRP	0.765
RRIRLRPPRLPRPRPRPKIHPRP	-0.312
RRIRARPPRLPRPRPRPSSMPRP	-0.144
RRIRYRPPRLPRPRPRPCGTPRP	-0.193
RRIRIRPPRLPRPRPRPWCTPRP	-0.757
RRIRMRPPRLPRPRPRPRDKPRP	0.0704
RRIRVRPPRLPRPRPRPAIYPRP	-0.294
RRIRQRPPRLPRPRPRPCFIPRP	-0.353

Sequence	shrunken log2 fold change
RRIRERPPRLPRPRPRPDVAPRP	0.087
RRIRTRPPRLPRPRPRPTRHPRP	0.237
RRIRKRPPRLPRPRPRPWWQPRP	0.0795
RRIRVRPPRLPRPRPRPLITPRP	-0.439
RRIRIRPPRLPRPRPRPISKPRP	-0.161
RRIRGRPPRLPRPRPRPNYRPRP	0.0016
RRIRDRPPRLPRPRPRPIGMPRP	0.0484
RRIRTRPPRLPRPRPRPCHWPRP	-0.00233
RRIRIRPPRLPRPRPRPPCSPRP	-0.339
RRIRSRPPRLPRPRPRPQDSPRP	-0.164
RRIRTRPPRLPRPRPRPTSKPRP	-0.343
RRIRLRPPRLPRPRPRPPVCPRP	0.124
RRIRMRPPRLPRPRPRPYLLPRP	-0.204
RRIRARPPRLPRPRPRPGAKPRP	0.623
RRIRWRPPRLPRPRPRPHAHPRP	0.0336
RRIRSRPPRLPRPRPRPCLNPRP	-0.0696
RRIRMRPPRLPRPRPRPNDGPRP	-0.0703
RRIRIRPPRLPRPRPRPFKLPRP	-0.597
RRIRQRPPRLPRPRPRPVFHPRP	-0.107
RRIRGRPPRLPRPRPRPRQDPRP	0.452
RRIRFRPPRLPRPRPRPTQLPRP	0.364
RRIRMRPPRLPRPRPRPSTWPRP	0.081
RRIRVRPPRLPRPRPRPWSEPRP	-0.00215
RRIRLRPPRLPRPRPRPHSMPRP	-0.506
RRIRDRPPRLPRPRPRPDQNPRP	-0.0888
